{"source": "patent US20190352623A1", "biological_target": "HaloTag-NLpep86 fusion proteins (internal fusions)", "assay": "luminescence complementation in transfected HeLa cells"}
{"substance": "NLpoly11S", "values": [{"measurement": "efficiency of structural complementation relative to N- or C-terminal NLpep86 fusions to HaloTag", "result": "1 to 40", "unit": "%"}]}
